Results taken from the RNAGym collection of RNA variant scans (doi:10.1073/pnas.2313332121).

B1: TPR t1 (parent)
chain: GACCAAUCUGCCCUCAGAGCUCGAGAACAUCUUCGGAUGCAGAGGAGGCAGGCUUCGGUGGCGCGAUAGCGCCAACGUCCUCAACCUCCAAUGCAUCCCACCACAUGAUGAUGCCUGAAGAGCCUUGGUUUUUUG

Variants of: B1
Assay: polymerase ribozyme fitness, log enrichment relative to wild type (log ratio); higher = more active; in vitro selection for triplet polymerase activity
Procedure, shortened: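 Mutant libraries were PCR-built and transcribed for each subunit of a heterodimeric triplet polymerase ribozyme and selected for one round in triplicate at −7 °C, frozen, before gel excision of extended constructs and streptavidin-bead capture. Input and output libraries were Illumina-sequenced, keeping genotypes with ≥10 input reads and ≥1 read per output. Fitness is a logarithmic ratio of genotype to wild-type enrichment, in base 2, using inverse-variance-weighted replicate averages.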

Variant	polymerase ribozyme fitness (log ratio)
G45C A118G A121U	-1.69
A46C C114U U130G	-3.02
A46C C115G	-2.59
G45U U55C G61U	-1.09
G45A A121G	1.78
G45C U96A	-1.79
A46C A100C C115U U129A	-5.33
G45C U106A	-1.34
A46C U87G A100U	-0.0504
G45A C64U A83G U96G G122A	-2.56
G45U G60C U78G	-3.53
G45A C62U U96G	-1.28
G45U U78A	-1.86
A46G A74G U92C	-0.91
G45A G52U C79U A95C A121C	-0.812
G45U U87A	-1.32
G45U G63C C104U	-0.927
G45C U112C	1.16
G45C G48C G69A	-4.32
G45A G69U U112A	1.62
A46G C62U G117U	-3.06
G45A C97U	-2.83
G45U G110C	-4.47
G45C A50C	-0.909

Variant	polymerase ribozyme fitness (log ratio)
G45C C62G G93U	-5.04
A46C A100G	-4.28
G45U A46C U54C U78C	-2
G45U A50U C53A C114U	-3.7
G45A C89G U116G	-4.12
G45A G135U	-1.9
G45U C56G	-2.16
G45U C56U	-1.13
G45U A111U C124U	-3.45
G45U A68G	-4.43
A46C G69C C85A	-3.49
A46C U55A G63C	-0.439
A46C U92C U106G C115U U125G U132A	-6.92
G45A G69U	1.63
G45U G51A	-3.89
A46C A50U C72A	-1.15
A46C C64A	-5.98
G45U C101U G113A	-2.93
G45A G71C C101A C115U G127C	-5.44
A46C C76G G122A	-1.33
G45A G128A	-2.84
G45A C73U	-1.34
A46C U112A	0.587
A46C C80A	-3.23

Variant	polymerase ribozyme fitness (log ratio)
A46C U81A G93U	-2.96
G45A C94U	-0.815
G45U G93C C124G	0.153
G45U G63U C101G U112A	-2.32
G45U A75G U106C A119U A121C U130A	-0.0532
G45U C94U C101G	-3.3
A46C U125A	-1.48
G45U G63A U131A	-1.33
G45U G63A C79A A83G	-6.05
G45U A50C C56A	-1.55
G45A C49A G117A	-2.04
G45U C49U	-1.85
G45A C73U G113A C115U	-4.38
G45U G52A U96G	-2.98
A46G C56A A84C C104A C115U A118U A119U	-3.57
G45A C56U G69U G93U	-4.17
G45C G51A	-3.29
G45C G63A U106A	-1.21
G45U C53A G69A C89A C104U C124A G135A	-6.34
A46G A66G	-1.48
G45A C73U G93C	-1.34
G45A C79G	-1.88
G45A C79U	-1.01
G45C U55A A95U C114U	-3.85

Variant	polymerase ribozyme fitness (log ratio)
G45C U87C A108U	-6.32
G45U C70A G120U G122C	-2.72
A46C A50G	-0.277
A46C G93U	-1.86
A46C G60C	-0.75
G45A G71U	-0.591
G45A G71C	-1.76
G45A C49G U106C U112A	-0.738
A46C C79G	-2.93
A46C C79A	-2.25
G45U G69A U78C U87G A111U	-6.45
G45A C85U	-1.45
G45A U106C	-1.09
G45U C53A A90G C97U	-1.75
A46C G48A G51A	-3.51
G45C G61A U129A	-0.659
G45U C53U G61A A105U	-2.59
G45C A68G U112A A118U	-4.16
G45U G93A	-1.79
G45A C70G	-3.56
G45A C70A	-1.89
G45C C115U A121G G128A	-4.67
G45U C56U C70U A75U	-2.3
G45U C53A C64A U112A G117A	-6.13

Variant	polymerase ribozyme fitness (log ratio)
G45C G61A	0.0573
A46G A74U G77A G113U	-3.68
G45U G128U	-2.42
G45U G61C A66U	-3.49
G45U C88A U130G	-0.102
G45C C72A G135C	-0.387
G45A G51A C79G C82U C86U U112A C115A	-7.28
G45A U54A C56U G57U U87G A91G G93A	-3.65
A46G A68U C114G	-5.84
G45U A90C	-1.56
A46G C72A	0.745
G45C A46U C72G	-2.36
G45A C86A	-1.9
G45A U96G	-1.51
G45A C73A G113U	-4.75
G45A G48U U54C C56G G69U U78G G93U C123G U130A	-2.55
A46C C72A C123U	0.713
G45A G71U A84G	-2.48
G45A C62U U112G C115G	-2.08
G45U C72U	-1.63
G45C C79A	-2.14
A46C C80G U130C	-6.42
G45A U130C	-1.02
A46G G57A A83G U112C	0.022

Variant	polymerase ribozyme fitness (log ratio)
G45A C64A	-6.18
G45U C88U	-0.272
G45U G127U	-3
A46G C56U G110U U116A	-2.84
G45A G48U U112G	-2.7
G45C C97A	-4.5
G45A A68G U112A	-4.04
G45U	-1.31
G45C	-1.57
A46G C72U C73G G117C	-4.79
G45A C56U	-0.103
G45A G52U U130G	-1.91
G45U U92C	-2.47
A46G C82U U106A	-0.902
G45A C85U U92C G128A	-5.92
G45U G47U G113A	-3.45
G45U U129G	-2.58
G45U A74C A108G	-3.25
A46C U92C	-1.97
A46C A74U	-0.673
G45A G48U C53G C72A	-0.719
G45U C49U G69U A121U G128C	-1.32
G45C G77A C82G C89G	-3.97
A46C C79A G120A	-1.25

Variant	polymerase ribozyme fitness (log ratio)
G45U A95U	-1.69
A46G C70U	-0.0806
G45A G51C	-5.06
G45U A50U G60U C79G	-2.53
G45U G51U C62U U78C C80G	-4.39
A46C C79U C101U G113U	-4.4
A46G G48A C64A	-6.8
A46C C62G	-2.43
A46G C56A	-0.525
A46G C56G	0.084
A46G C56U	-0.0715
A46G C88U	-0.84
G45U G57C A118U	-0.526
G45A U55G G77A	-1.78
G45C G113C G135U	-4.16
G45C C76G U125G	-1.06
G45U C62U U78G C101A G122A	-3.21
A46C U54A	-0.931
G45U G58A C86U A95C	-3.29
G45C C53U G63C U116G	-3.05
G45U U109A	-6.02
A46C U78A	-0.208
A46C G117A	-2.35
